Source: patent US20150004190A1 (INSTITUT NATIONAL DE LA SANTE ET DE LA RECHERCHE MEDICALE …, published 2015)

How the values were obtained:
Assay in all cases: cell-based or functional assay
[1] = target: T1, HIV-1 R5 tropic QH0692.42 envelope (on pseudovirus) (HIV-1 QH0692.42)
[2] = target: HIV-1 JR-CSF envelope (on virions) (HIV-1 JR-CSF (clade B, R5 tropic), UniProt P20871 32-848)
[3] = target: T1, HIV-1 R5 tropic QH0692.42 envelope (on …); remark: listed apart in the source

Row | Binder | IC50 times lower than that of 2F5 IgG1, TZM-bl assay [1] [fold] | IC90 times lower than that of 2F5 IgG1, TZM-bl assay [1] [fold] | IC50 times lower than 2F5 IgG1, CEM-CCR5+ neutralization [2] [fold] | IC99 times lower than 2F5 IgG1, CEM-CCR5+ neutralization [2] [fold] | IC50%, neutralization of envelope pseudotyped HIV-1 in TZM-bl assay (luciferase) [3] [nM]
1 | 2F5 IgA2 (antibody, V domains shown) VH: RITLKESGPPLVKPTQTLTLTCSFSGFSLSDFGVGVGWIRQPPGKALEWLAIIYSDDDKRYSPSLNTRLTITKDTSKNQVVLVMTRVSPVDTATYFCAHRRGPTTLFGVPIARGPVNAMDVWGQGITVTI VL: ALQLTQSPSSLSASVGDRITITCRASQGVTSALAWYRQKPGSPPQLLIYDASSLESGVPSRFSGSGSGTEFTLTISTLRPEDFATYYCQQLHFYPHTFGGGTRVDVR | 8.33 | 23.8 | 33 | 20 | 0.024
2 | 2F5 IgG1 (antibody, V domains shown) VH: RITLKESGPPLVKPTQTLTLTCSFSGFSLSDFGVGVGWIRQPPGKALEWLAIIYSDDDKRYSPSLNTRLTITKDTSKNQVVLVMTRVSPVDTATYFCAHRRGPTTLFGVPIARGPVNAMDVWGQGITVTI VL: ALQLTQSPSSLSASVGDRITITCRASQGVTSALAWYRQKPGSPPQLLIYDASSLESGVPSRFSGSGSGTEFTLTISTLRPEDFATYYCQQLHFYPHTFGGGTRVDVR | – | – | – | – | 0.2
